Measured values published in patent US20230322958A1 (Genentech, published 2023).

Target: T1, human Notch2 on U-87 MG cells (human, UniProt Q04721 26-2471)
Experiment: cell-based or functional assay

T1 sequence (Q04721 26-2471): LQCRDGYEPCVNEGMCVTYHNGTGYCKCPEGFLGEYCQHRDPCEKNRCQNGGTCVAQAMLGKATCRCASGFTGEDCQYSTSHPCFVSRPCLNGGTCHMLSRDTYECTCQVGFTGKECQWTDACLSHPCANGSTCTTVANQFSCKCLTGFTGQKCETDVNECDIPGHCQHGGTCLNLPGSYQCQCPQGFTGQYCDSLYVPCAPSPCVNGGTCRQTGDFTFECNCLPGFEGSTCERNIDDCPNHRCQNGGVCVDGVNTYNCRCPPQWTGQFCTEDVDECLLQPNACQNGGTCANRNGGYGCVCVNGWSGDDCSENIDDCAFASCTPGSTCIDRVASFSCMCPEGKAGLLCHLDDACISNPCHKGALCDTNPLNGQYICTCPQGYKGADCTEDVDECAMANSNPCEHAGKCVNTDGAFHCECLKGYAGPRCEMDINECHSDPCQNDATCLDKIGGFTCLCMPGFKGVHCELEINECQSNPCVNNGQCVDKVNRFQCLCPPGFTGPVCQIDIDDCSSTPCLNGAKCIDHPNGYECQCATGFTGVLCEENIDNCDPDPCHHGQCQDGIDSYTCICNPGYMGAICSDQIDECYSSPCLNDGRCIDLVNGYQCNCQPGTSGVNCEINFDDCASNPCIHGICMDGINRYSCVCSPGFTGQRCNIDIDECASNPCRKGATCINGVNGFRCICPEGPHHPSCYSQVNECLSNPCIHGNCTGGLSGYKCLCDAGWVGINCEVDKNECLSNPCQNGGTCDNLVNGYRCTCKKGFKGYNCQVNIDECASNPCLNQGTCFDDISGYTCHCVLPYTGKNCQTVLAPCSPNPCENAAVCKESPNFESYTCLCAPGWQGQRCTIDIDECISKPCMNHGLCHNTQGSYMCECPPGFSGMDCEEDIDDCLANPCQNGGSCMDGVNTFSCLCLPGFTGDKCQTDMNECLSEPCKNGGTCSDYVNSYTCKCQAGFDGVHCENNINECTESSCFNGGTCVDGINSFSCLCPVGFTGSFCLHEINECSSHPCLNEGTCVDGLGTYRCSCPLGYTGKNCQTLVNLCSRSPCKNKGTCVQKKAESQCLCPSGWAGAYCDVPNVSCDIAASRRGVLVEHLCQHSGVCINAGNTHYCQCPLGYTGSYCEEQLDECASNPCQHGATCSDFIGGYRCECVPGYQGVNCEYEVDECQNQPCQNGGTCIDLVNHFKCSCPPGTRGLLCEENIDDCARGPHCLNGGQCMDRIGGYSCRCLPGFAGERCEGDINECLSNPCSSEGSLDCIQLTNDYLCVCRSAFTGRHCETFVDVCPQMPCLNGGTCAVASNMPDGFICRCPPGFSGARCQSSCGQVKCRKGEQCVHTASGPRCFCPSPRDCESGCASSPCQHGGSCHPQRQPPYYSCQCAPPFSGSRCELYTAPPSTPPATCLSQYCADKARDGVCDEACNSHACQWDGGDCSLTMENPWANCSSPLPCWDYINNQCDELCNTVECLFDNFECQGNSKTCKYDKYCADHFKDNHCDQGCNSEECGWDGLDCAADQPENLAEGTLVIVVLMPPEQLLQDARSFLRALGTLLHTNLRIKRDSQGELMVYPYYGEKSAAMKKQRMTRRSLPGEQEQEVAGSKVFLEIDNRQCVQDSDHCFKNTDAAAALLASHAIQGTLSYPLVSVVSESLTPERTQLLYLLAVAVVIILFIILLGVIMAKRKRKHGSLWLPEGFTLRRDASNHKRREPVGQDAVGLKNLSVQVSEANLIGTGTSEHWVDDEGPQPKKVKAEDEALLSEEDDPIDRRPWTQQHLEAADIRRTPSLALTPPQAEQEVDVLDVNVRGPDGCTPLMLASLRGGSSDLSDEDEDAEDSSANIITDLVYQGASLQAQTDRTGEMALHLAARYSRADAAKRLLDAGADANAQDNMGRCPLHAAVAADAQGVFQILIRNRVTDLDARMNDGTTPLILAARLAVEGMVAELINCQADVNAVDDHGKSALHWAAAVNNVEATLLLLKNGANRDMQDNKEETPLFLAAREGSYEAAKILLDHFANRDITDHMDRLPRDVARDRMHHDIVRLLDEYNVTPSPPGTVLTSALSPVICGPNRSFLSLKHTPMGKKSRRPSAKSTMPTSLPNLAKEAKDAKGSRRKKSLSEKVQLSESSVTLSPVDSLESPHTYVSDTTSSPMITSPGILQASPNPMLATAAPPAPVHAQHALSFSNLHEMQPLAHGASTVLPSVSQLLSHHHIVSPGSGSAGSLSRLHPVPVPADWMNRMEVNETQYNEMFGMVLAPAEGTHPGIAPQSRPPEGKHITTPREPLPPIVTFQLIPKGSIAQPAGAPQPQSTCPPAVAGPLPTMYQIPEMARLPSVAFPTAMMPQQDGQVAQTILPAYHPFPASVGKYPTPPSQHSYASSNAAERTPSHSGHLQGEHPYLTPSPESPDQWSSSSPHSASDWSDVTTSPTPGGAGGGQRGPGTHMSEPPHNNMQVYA

DLL Inhibition (IC50) | Jag1 Inhibition (IC50) | Binder
> 400 nM | 0.21 nM | 1B2.v104.huFab.LC_K149C.PEG_6-arm-Mal-6kD (other, engineered Cys (K149C) joined through maleimide to 6ARM(DP)-MAL-6000) heavy: EVQLVESGGGLVQPGGSLKLSCAVSGFTFSDFYMEWVRQASGKGLEWVAAQRNKANDFSIVYSASVKDRFTISRDDSKSTLYLQMNSLKTEDTAVYYCSRDGGKLALDAWGQGTLVTVSSASTKGPSVFPLAPSSKSTSGGTAALGCLVKDYFPEPVTVSWNSGALTSGVHTFPAVLQSSGLYSLSSVVTVPSSSLGTQTYICNVNHKPSNTKVDKKVEPKSCD light: DIQMTQSPSSVSASVGDRVTITCQTSEDIYSGLAWYQQKPGKSPKLLIYGASRLQDGVPSRFSGSGSGTDYTLTISSLQPEDFATYYCQQGFKYPLTFGGGTKVEIKRTVAAPSVFIFPPSDEQLKSGTASVVCLLNNFYPREAKVQWCVDNALQSGNSQESVTEQDSKDSTYSLSSTLTLSKADYEKHKVYACEVTHQGLSSPVTKSFNRGEC
> 500 nM | 0.27 nM | 1B2.v104.huFab.LC_K149C.PEG_4-arm-Mal-10kD (other, engineered Cys (K149C) joined through maleimide to a 4-arm maleimide PEG linker (10 kD)) heavy: EVQLVESGGGLVQPGGSLKLSCAVSGFTFSDFYMEWVRQASGKGLEWVAAQRNKANDFSIVYSASVKDRFTISRDDSKSTLYLQMNSLKTEDTAVYYCSRDGGKLALDAWGQGTLVTVSSASTKGPSVFPLAPSSKSTSGGTAALGCLVKDYFPEPVTVSWNSGALTSGVHTFPAVLQSSGLYSLSSVVTVPSSSLGTQTYICNVNHKPSNTKVDKKVEPKSCD light: DIQMTQSPSSVSASVGDRVTITCQTSEDIYSGLAWYQQKPGKSPKLLIYGASRLQDGVPSRFSGSGSGTDYTLTISSLQPEDFATYYCQQGFKYPLTFGGGTKVEIKRTVAAPSVFIFPPSDEQLKSGTASVVCLLNNFYPREAKVQWCVDNALQSGNSQESVTEQDSKDSTYSLSSTLTLSKADYEKHKVYACEVTHQGLSSPVTKSFNRGEC
> 1000 nM |  | 1B2.v104.huFab.LC_K149C.dPEG19_dimer (other, engineered Cys (K149C) joined through maleimide to Bis-Mal-PEG19) heavy: EVQLVESGGGLVQPGGSLKLSCAVSGFTFSDFYMEWVRQASGKGLEWVAAQRNKANDFSIVYSASVKDRFTISRDDSKSTLYLQMNSLKTEDTAVYYCSRDGGKLALDAWGQGTLVTVSSASTKGPSVFPLAPSSKSTSGGTAALGCLVKDYFPEPVTVSWNSGALTSGVHTFPAVLQSSGLYSLSSVVTVPSSSLGTQTYICNVNHKPSNTKVDKKVEPKSCD light: DIQMTQSPSSVSASVGDRVTITCQTSEDIYSGLAWYQQKPGKSPKLLIYGASRLQDGVPSRFSGSGSGTDYTLTISSLQPEDFATYYCQQGFKYPLTFGGGTKVEIKRTVAAPSVFIFPPSDEQLKSGTASVVCLLNNFYPREAKVQWCVDNALQSGNSQESVTEQDSKDSTYSLSSTLTLSKADYEKHKVYACEVTHQGLSSPVTKSFNRGEC
> 500 nM | 0.35 nM | 1B2.v104.huFab.LC_K149C.dPEG_4-arm-Mal-3kD (other, engineered Cys (K149C) joined through maleimide to a 4-arm maleimide dPEG linker (3 kD)) heavy: EVQLVESGGGLVQPGGSLKLSCAVSGFTFSDFYMEWVRQASGKGLEWVAAQRNKANDFSIVYSASVKDRFTISRDDSKSTLYLQMNSLKTEDTAVYYCSRDGGKLALDAWGQGTLVTVSSASTKGPSVFPLAPSSKSTSGGTAALGCLVKDYFPEPVTVSWNSGALTSGVHTFPAVLQSSGLYSLSSVVTVPSSSLGTQTYICNVNHKPSNTKVDKKVEPKSCD light: DIQMTQSPSSVSASVGDRVTITCQTSEDIYSGLAWYQQKPGKSPKLLIYGASRLQDGVPSRFSGSGSGTDYTLTISSLQPEDFATYYCQQGFKYPLTFGGGTKVEIKRTVAAPSVFIFPPSDEQLKSGTASVVCLLNNFYPREAKVQWCVDNALQSGNSQESVTEQDSKDSTYSLSSTLTLSKADYEKHKVYACEVTHQGLSSPVTKSFNRGEC

Target: T1, human Notch2 on U-87 MG cells
Experiment: KinExA equilibrium whole-cell analysis on Notch2-expressing U-87 cells
Method: After incubation, the cells were centrifuged and the supernatants, containing the free fraction of antibody or Fab construct, were removed without disturbing the cell pellets and transferred onto a KinExA 3200 instrument with autosampler (Sapidyne Instruments Inc). Each supernatant was flowed over a solid phase composed of polystyrene beads (#440176, Sapidyne Instruments Inc) coated with biotinylated goat anti-human Immunoglobulin G (IgG) heavy+light (H+L) (#109-065-003, Jackson ImmunoResearch Laboratories Inc.) or biotinylated Notch2 extracellular domain to capture the free antibody or Fab construct. […] The fluorescent signals were recorded and converted to a voltage signal that is directly proportional to the amount of free antibody or Fab construct in the equilibrated sample. Using the built in Equilibrium Whole Cell analysis method, the KinExA Pro software performed a least squares analysis on the measured data to fit optimal solutions for the KD and the activity of the free antibody or Fab construct to a curve representative of a 1:1 reversible bi-molecular interaction. […] A N-curve analysis was applied for the testing of the two concentrations of antibody or Fab construct to determine the KD on Notch2-expressing U-87 cells.
The binding kinetics were determined using a similar assay format as the one used for the equilibrium analysis, with the exception that measurements were collected “pre-equilibrium” and the binding signals were plotted as a function of time. For the KinExA direct method, anti-Notch2 antibody and Fab formats were incubated with Notch2-expressing U-87 cells at a fixed concentration (Table 12) and aliquots of the cell binding solution were collected at different time points to determine the fraction of free antibody or Fab format. The KinExA Pro software was then used to determine the association rate constant (Kₒₙ).

Kd | Binder
0.195 nM | 1B2.v104.Fab-huIgG1.N297G (antibody, V domains shown, Tetravalent Fab-IgG format, human IgG1 N297G; also called Tetravalent Fab-IgG; 1B2.v104 Fab-IgG) VH: EVQLVESGGGLVQPGGSLKLSCAVSGFTFSDFYMEWVRQASGKGLEWVAAQRNKANDFSIVYSASVKDRFTISRDDSKSTLYLQMNSLKTEDTAVYYCSRDGGKLALDAWGQGTLVTVSS VL: DIQMTQSPSSVSASVGDRVTITCQTSEDIYSGLAWYQQKPGKSPKLLIYGASRLQDGVPSRFSGSGSGTDYTLTISSLQPEDFATYYCQQGFKYPLTFGGGTKVEIK
1.98 nM | 1B2.v104.huFab.LC_K149C.MMTS_capped (Fab, V domains shown, engineered Cys (K149C) capped with MMTS, Monovalent Fab used in the KinExA experiments; also called Monovalent Fab) VH: EVQLVESGGGLVQPGGSLKLSCAVSGFTFSDFYMEWVRQASGKGLEWVAAQRNKANDFSIVYSASVKDRFTISRDDSKSTLYLQMNSLKTEDTAVYYCSRDGGKLALDAWGQGTLVTVSS VL: DIQMTQSPSSVSASVGDRVTITCQTSEDIYSGLAWYQQKPGKSPKLLIYGASRLQDGVPSRFSGSGSGTDYTLTISSLQPEDFATYYCQQGFKYPLTFGGGTKVEIKR
0.0353 nM | 1B2.v104.huIgG1.N297G (antibody, V domains shown, Human IgG1 with N297G; also called Bivalent IgG antibody; 1B2.v104 IgG) VH: EVQLVESGGGLVQPGGSLKLSCAVSGFTFSDFYMEWVRQASGKGLEWVAAQRNKANDFSIVYSASVKDRFTISRDDSKSTLYLQMNSLKTEDTAVYYCSRDGGKLALDAWGQGTLVTVSS VL: DIQMTQSPSSVSASVGDRVTITCQTSEDIYSGLAWYQQKPGKSPKLLIYGASRLQDGVPSRFSGSGSGTDYTLTISSLQPEDFATYYCQQGFKYPLTFGGGTKVEIK
